Measurements from US20200299372A1 (ADRENOMED, published 2020).
Like-named read-outs stand apart in the source and are kept apart here. No end group written: not given here.

Assays:
[1] = molecular target: T1, human recombinant adrenomedullin receptor (CRLR + RAMP3) (human); assay: cell-based or functional assay
[2] = molecular target: T1, human recombinant adrenomedullin …; assay: cell-based or functional assay; remark: listed apart in the source

T1 sequence (Q16602 whole entry, chain 1 of 2): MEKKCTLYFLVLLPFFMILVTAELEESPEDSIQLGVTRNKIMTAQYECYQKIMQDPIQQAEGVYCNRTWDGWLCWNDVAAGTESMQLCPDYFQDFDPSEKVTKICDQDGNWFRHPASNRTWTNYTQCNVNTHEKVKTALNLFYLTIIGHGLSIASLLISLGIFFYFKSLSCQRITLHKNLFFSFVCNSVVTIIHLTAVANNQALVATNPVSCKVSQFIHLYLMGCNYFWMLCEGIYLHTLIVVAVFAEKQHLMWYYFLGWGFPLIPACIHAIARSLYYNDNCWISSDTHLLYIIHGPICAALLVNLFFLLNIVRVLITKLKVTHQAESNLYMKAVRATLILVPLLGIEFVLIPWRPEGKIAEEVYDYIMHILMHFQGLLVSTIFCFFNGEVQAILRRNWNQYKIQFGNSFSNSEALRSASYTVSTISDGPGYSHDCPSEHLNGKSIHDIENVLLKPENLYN
T1 sequence (O60896 whole entry, chain 2 of 2, further chain): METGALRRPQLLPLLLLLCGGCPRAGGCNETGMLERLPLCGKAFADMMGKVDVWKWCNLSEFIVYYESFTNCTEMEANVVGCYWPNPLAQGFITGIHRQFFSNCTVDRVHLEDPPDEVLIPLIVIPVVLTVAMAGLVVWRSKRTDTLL

EC50 (read off the curve) [1] [nM] | EC50 (read off the curve) [2] [nM] | Binder
~1 | – | mature human Adrenomedullin (Human ADM 1-52) (ends and bridges not checked) peptide: YRQSMNNFQGLRSFGCRFGTCTVQKLAHQIYQFTDKDKDNVAPRSKISPQGY-NH2
– | ~0.09 | YRQSMNQGSRSNGCRFGTCTFQKLAHQIYQLTDKDKDGMAPRNKISPQGY-NH2 (ends and bridges not checked) [Murine ADM 1-50]
